According to patent publication US7351689 (ZymoGenetics, dated 2008):
Each block holds one binder with its values, some of them ahead of it.

How the values were obtained:
[1] = molecular target: T1, human IL-28 receptor on transfected 293 HEK cells (IL-28 receptor alpha subunit with endogenous CRF2-4) (human); assay: cell-based or functional assay
[2] = molecular target: T1, human IL-28 receptor on transfected 293 …; assay: cell-based or functional assay; remark: listed apart in the source

T1 sequence (Q8IU57 whole entry, chain 1 of 2): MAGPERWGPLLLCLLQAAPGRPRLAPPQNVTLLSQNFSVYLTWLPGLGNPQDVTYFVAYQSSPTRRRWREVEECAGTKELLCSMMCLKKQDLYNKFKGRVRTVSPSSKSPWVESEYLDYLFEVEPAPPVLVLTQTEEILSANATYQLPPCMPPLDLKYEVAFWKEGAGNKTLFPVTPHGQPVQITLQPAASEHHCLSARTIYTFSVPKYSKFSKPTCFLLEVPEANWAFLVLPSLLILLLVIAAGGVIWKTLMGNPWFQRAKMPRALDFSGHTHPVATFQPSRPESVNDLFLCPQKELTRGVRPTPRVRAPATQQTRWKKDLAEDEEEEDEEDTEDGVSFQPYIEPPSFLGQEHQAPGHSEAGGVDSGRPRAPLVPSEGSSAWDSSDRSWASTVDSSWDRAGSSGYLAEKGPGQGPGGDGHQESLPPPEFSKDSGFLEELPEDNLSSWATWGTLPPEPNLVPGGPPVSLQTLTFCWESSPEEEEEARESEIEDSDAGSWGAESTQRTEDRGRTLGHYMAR
T1 sequence (Q08334 whole entry, chain 2 of 2, further chain): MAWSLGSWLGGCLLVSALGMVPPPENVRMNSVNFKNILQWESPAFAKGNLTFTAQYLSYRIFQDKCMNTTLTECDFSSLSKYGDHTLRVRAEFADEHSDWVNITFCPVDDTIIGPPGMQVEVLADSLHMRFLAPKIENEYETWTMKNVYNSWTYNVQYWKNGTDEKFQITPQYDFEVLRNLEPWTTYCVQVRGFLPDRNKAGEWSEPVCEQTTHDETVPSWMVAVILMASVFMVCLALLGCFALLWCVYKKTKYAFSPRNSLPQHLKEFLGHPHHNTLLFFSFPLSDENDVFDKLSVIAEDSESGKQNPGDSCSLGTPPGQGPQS

- bioactivity in an ISRE assay [1]: 30 fold higher than the C112-C171 form
B1: C1-C3 form (C16-C113) of wild-type E. coli-derived IL-29 (ligand)
chain: MGPVPTSKPTTTGKGCHIGRFKSLSPQELASFKKARDALEESLKLKNWSCSSPVFPGNWDLRLLQVRERPVALEAELALTLKVLEAAAGPALEDVLDQPLHTLHHILSQLQACIQPQPTAGPRPRGRLHHWLHRLQEAPKKESAGCLEASVTFNLFRLLTRDLKYVADGNLCLRTSTHPEST

- ISRE Signaling of Transfected 293 Cells Following Class II Cytokine Stimulation (Fold Induction), ISRE-Luc./IL-28R, IL-28A 125 ng/ml [2]: 125 fold induction
B2: zcyto20 (IL-28A), human (ligand)
chain: VPVARLHGALPDARGCHIAQFKSLSPQELQAFKRAKDALEESLLLKDCRCHSRLFPRTWDLRQLQVRERPMALEAELALTLKVLEATADTDPALVDVLDQPLHTLHHILSQFRACIQPQPTAGPRTRGRLHHWLYRLQEAPKKESPGCLEASVTFNLFRLLTRDLNCVASGDLCV

- ISRE Signaling of Transfected 293 Cells Following Class II Cytokine Stimulation (Fold Induction), ISRE-Luc./IL-28R, IL-29 125 ng/ml [2]: 108 fold induction
B3: IL-29 (SEQ ID NO: 4) (ligand)
chain: GPVPTSKPTTTGKGCHIGRFKSLSPQELASFKKARDALEESLKLKNWSCSSPVFPGNWDLRLLQVRERPVALEAELALTLKVLEAAAGPALEDVLDQPLHTLHHILSQLQACIQPQPTAGPRPRGRLHHWLHRLQEAPKKESAGCLEASVTFNLFRLLTRDLKYVADGNLCLRTSTHPEST
